According to the nanobody polyreactivity screen of Harvey et al. (2022):

Assay: yeast display, Sf9 membrane polyspecificity reagent, FACS + sequencing; frameworks hold sequencing errors
Summary of the method: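 A synthetic nanobody library was expressed on Saccharomyces cerevisiae BJ5465 by galactose induction for 36–48 hours. The library was stained for 1 hour at 4 °C with 10% biotinylated, detergent-solubilized Sf9 membrane reagent and enriched with streptavidin microbeads before FACS. Low and high (top ~1%) gates were set on anti-HA fluorescence for expression and streptavidin fluorescence for reagent binding, and each polyreactivity label reflects the gate of origin.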

Row | Sequence | polyreactivity (PSR sort gate)
1 | QVHLVESRGGLVQAGGSLRLSCAASGYTFGHYALGWYRHAPGKERELVAVITSGGSTNYADSEKGRFTISRDNAKNNVYLQMKSLKPEETAVYYCAADLYFYYVWLRDYWGQGTQVTVSS | low polyreactivity
2 | QVHLVESRGGLVQAGGSLRLSCAASVFTFRYYAMGWYRQAPGKERELVAAITSDGITNYADSVKGRFTISRDNAKNTVYLQMNSLKPEDTAVYYCAAVGWFYGIRLEYWGQGTQLTVSS | high polyreactivity
3 | QVHLVESVGGLFQAGGSLRLSCDASGRTFPINAMGWYRQAPGKERELVARISRTSGSTYYADSVKGRFTISRDNAKNTVYLQMNSLNPEDTAVYYCAAVRDKYFRARYGYWGQGTQVTVSS | high polyreactivity
4 | QVHLVESVGGLVQAGGSLRLSCAASGRIIYTYAMGWYIQAPGKERELVAAISWSGGSTYYADSVKGRFTISRDNAKNTVYLQMNSLKPEDTAVYYCNAAYYGYENLSKRGYWGQGTQVTVSS | high polyreactivity
5 | QVHLVESVGGLVQAGGSLRLSCAASGRTFHYYAMGWYRQAPGKERELVAGITGGGSTYYADSVKGRFTISRDNAKNTVYLQMNSLKPEDTAVYYCAADRSYYGYGYWGQGTQVTVSS | low polyreactivity
6 | QVHLVESVGGLVQAGGSLRLSCAASGSIFLRYGMGWYRQAPGKERELVASISSSGGSTYYADSVKGRFTISRDNAKNTVYLQMNSLKPEDTAVYYCAADVPGARVSYWTSSGWHYDYCGQGTQVTVSS | high polyreactivity
7 | QVHLVESVGGLVQAGGSLRLSCAASGSTFIYYAMVRYRQAPGKERELVASISRSGGSTYYADSVKGRFTISRDNAKNTVYLQMNSLKPEDTAFYYCARAYRSSFNYWGQGTQVTVSS | high polyreactivity
8 | QVHLVESVGGLVQAGGSLRLSCASSGFTFPYYAMGWYRQQPGKERELVAAISWIGDSTYYADSVKGRFTISRDNAKNTVYLQMNSLKPEDTAVYYCAAGYKWSIPNRDYDYWGQGTQVTVSS | low polyreactivity
9 | QVHLVETGGGLVQAGGSLRLSCAASGFIFIWYALGGYRQAPGKERELVAAITSDGGRTYYADSVKGRFTISRDNAKNSVYFQMNSLKPEDTAVYYCYAVSSATKYEYWGQGTQVTVSS | high polyreactivity
10 | QVHLVETGGGLVQAGGSLRLSCAASGYIFGWYAMGWYRQAPGKERELVAAITRGGSTNYADSVKGRFTISRDNAKNTVYLLMNSLKPEDTAVYYCNTEDWAVGSPEVEYEYDYWGQGTQVTVSS | low polyreactivity
11 | QVHLVETVGGLVKAGGSLRLSFAASGSIFTSNDMGWYRQEPGKERELVAAISSGGRTYYADSVKGRFTISRDNAKNTVYLQMNSLKPEYTAVYYCAVDPHLYALRGAVYYWGQGTQVTVSS | low polyreactivity
12 | QVHLVQSGGGLVQAGGSLRISSAASGSTFSPYDMGRYRQAPGKEREMVAGITDGAITTYADSVKGSFTISRDNANNTVYLQMNSLKPEDTEVYYCAAFLWAKYHPGYYYWGQGTQETVSS | low polyreactivity
13 | QVHLVQTRGGLVQAGGSLRLSCAASGLTFTYYAMGWNRPEPGKERQLVSAISSSGSDTYYADSVKGRFTISRDYALNTVYFQMNSLKTEDTAVYYCAAVLTALSPDFEYEYWGQGTQVTVSS | low polyreactivity
14 | QVHRVESGGGLVQAGGCLRLSCAASGRTFARYVMGGYRQAPGKERELVAAINSGGTTYYADSVKGRFTISRDNAKNTVYLQMNSLKPEDTAVYYCNGRRGHYAYDYWGQGTQVTVSS | high polyreactivity
15 | QVKHVESGGGLVQAGGSLRLSCAASGFTFSYYAMGWFRQAPGKERELVAAITSGGSTYYADYVKGRFTISRDNAKNTVYLQMNSLKPEDTAVYYCNADGWYYPTDDYWGHGTQVTVSS | low polyreactivity
16 | QVKLKESVGGLVQAGGSLRLSCAASGSISATGNMGWYRQAPGEERELVAAINFGSNTYYADSVKGRFTISRDNAKNTVYLQKSGLKPEDTPVYYCAVDGCYVGPYYYWGQGTQVTVSS | high polyreactivity

Row | Sequence | polyreactivity (PSR sort gate)
17 | QVKLLDSGGGLVQAGGSLRLSCSASGFTFNNYAMVWYRQAPGKERELVAAISWAGGSTYYADSVKGRFTISRDNAKNTVYLQMNTLKPEDTAVYYCAKRIRYTTRPTYGFYYWGQGTQVTVSS | high polyreactivity
18 | QVKLVDSAGGLVQAGVILRLRCAASGSIVRPNAMGWYSQATGKERELVAAITSSGTTNYADSVKVRFTISRDNAKNTVYLQMNSLKPEDTAVYYCAAERKDGGYGYGVWDYYPGENMDYWGQGTQVTVSS | low polyreactivity
19 | QVKLVDSGGGLVQAGGSVGLSCAASGRIFPWYTMGWYRQAPGKERELVAVISSGGRTHYADSVKGRFTISRDNAKNTVYLQMYSLNPEDTAVYDCAAESRYQRYDYWGQGTQVTVSS | high polyreactivity
20 | QVKLVESAGGLVQAGCSLRLSCAASGSIFLKNAKGWYRQSPGKERELVAGITTRGSTYYADSVKGRFTISRDNAKNTVYLQMNSLKPEDTAVYYCAKRDVGYQTRYFYWGQGTQVTVSS | high polyreactivity
21 | QVKLVESGGGLDQAGGSLRLSCAAYGSIFGDYVMGWYRQAPGKEMEFVAAISGSGGSTYYADSVKWRFTISRVNAKNTVYLQMNCLKPEDTAVYYCSTSGPQYYSRNLDYWGQGTQVTVSS | low polyreactivity
22 | QVKLVESGGGLFQAGGSLRLSCADSGRTFYYYGMPWYIQETGKERELVAAINRGDSTKYADSVKGRFTISLDNAKNNVYLHMNSLKPEDTAVYYCNARLRCSFARFIYEYWRQGTQVTVSS | low polyreactivity
23 | QVKLVESGGGLVHAGGSLRLICAASGFTFGEYAMVWSRQSPGKERELVAGISWSGGGTYYADSVKGRFTISRDNAKYTVYLQMNSLKPEDTAVYYCAAVLPSTSYKYDYWGQGTQVTVSS | low polyreactivity
24 | QVKLVESGGGLVQAGCRLRLSCAASGFICGYNAMGWYRQAPGKERELVAAIDWSGTSTYYADSVKWRFTISRDNAKNTVYLQMNSLKPEDSAVYYCAADTSTWDHTRGYDYWGQGTQVTVSS | high polyreactivity
25 | QVKLVESGGGLVQAGGRLRLTCAASGSTISGYAMGWYRQAPGKERQLVATITGGGRTYYADSVKGRFTISRDNAKNTVYLQMNSLKPEDSAVYYFAVRGYHQYKYGYWGQGTQVTVSS | high polyreactivity
26 | QVKLVESGGGLVQAGGSIRLSCAASGSIFWYYAMGWYRQAPGKERELVATITSGGSTSYADSVKGRFTISRDNAKNTVYLQMKSLKPEDTAVYYCAAARLFTTYDWGQGTQVTVSS | low polyreactivity
27 | QVKLVESGGGLVQAGGSLRISCAASGLTFPKYAMGWYRQAPGKERELVAAITQRGGSTYYADSVKVRFTISRDNAKNTVYLEMYWLKREDTAVYYCNARRRDYNNRREFDYWGQGSQVTVSS | high polyreactivity
28 | QVKLVESGGGLVQAGGSLRLICAASGRIFVPYAMGWNRQAPWKETELFAAISRSGGSTYYADSVKGRFTISRDNAKNTVYLQMNSLKTEETAVYYCAVYYRRYKEYGYNYWGQGTEVTVSS | high polyreactivity
29 | QVKLVESGGGLVQAGGSLRLSCAASARIFAQYDMGWYRQEPGKEREFVAAISGGGSSKYYADSVKGRFTISRDNAKNTGYLQMNSLKPEDTAVYYCAAYGRYPSWYAPGNEYWGQGTQVTVSS | low polyreactivity
30 | QVKLVESGGGLVQAGGSLRLSCAASGFIFRGYAMGWYRQAPGKERELVAAINYSGGSTYYADSVKGRFTISRDYAKNTVYLQMNSAKPEYTAVYYCNALGLRYYEYDYWGQGTQVNVSS | low polyreactivity
31 | QVKLVESGGGLVQAGGSLRLSCAASGFIFSKNAMGWYRQAPGKERELVAAISGRGGTTYYADSVKGRFTISRDNAKNTVYLQMNSLIPEDTAVYYCATDNSSHPYDYWGQGTQVTVSS | high polyreactivity
32 | QVKLVESGGGLVQAGGSLRLSCAASGFTFDKYAMGWSRPEPGKERELVATISRRGGSTYYADSVKGRFTISRDNAKNTVYLQMNSLKPEDTAVYYCAKVRYYYSPYREFDYCGQGTQVTVSS | high polyreactivity
